Source: patent US20180009897A1 (IGM BIOSCIENCES, published 2018)

How the values were obtained:
Assay in all cases: specificity ELISA as in Example 2, receptor coated
[1] = target: T1, Soluble DcR1 protein (R&D Systems Catalog #630-TR-100/CF) (UniProt O14798 26-221, limits assumed)
T1 construct: also called decoy receptor DcR1; TRAILR3
T1 sequence (looked up): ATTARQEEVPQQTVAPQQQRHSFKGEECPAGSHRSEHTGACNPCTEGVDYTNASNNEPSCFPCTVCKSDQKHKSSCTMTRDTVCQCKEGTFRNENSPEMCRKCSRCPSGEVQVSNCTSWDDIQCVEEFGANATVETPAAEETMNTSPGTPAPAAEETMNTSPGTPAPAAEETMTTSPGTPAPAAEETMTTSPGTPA
Protocol: (§1) Soluble DR5, DR4, DcR1, or DcR2 protein (R&D Systems Catalog #631-T2-100/CF, 347-DR-100/CF, 630-TR-100/CF, 633-TR-100 respectively) were coated on an ELISA plate at 2 μg/mL in 100 mM NaHCO₃ pH 9.5 overnight at 4° C. A solution of 2% BSA in PBS was used for the blocking and antibody incubation steps. The plate was blocked for 1 hour at room temperature, then incubated with mouse anti-human DR5 mAb (Acris Antibodies Catalog #AM31206AF-N) for 1 hour at room temperature. anti-DR5 mAb was 3-fold serially diluted to concentrations ranging from 1 to 200 μg/mL. After washing 3 times with PBS plus 0.05% Tween-20, the plate was incubated with rat anti-mouse kappa-HRP (Southern Biotech Catalog #1180-05) for 1 hour at room temperature, protected from light. After washing 3 times with PBS plus 0.05% Tween-20, the plate was incubated with TMB substrate (BD Biosciences Catalog #555214) for 20 minutes at room temperature. The reaction was stopped with 1M H₂SO₄ and absorbance at 450 nm was determined using a microtiter plate reader.
(§2) For Human Anti-DR5 mAb ELISAs, 1:2000 Mouse Anti-Human Lambda-HRP (Southern Biotech Catalog #9180-05) or 1:6000 Mouse Anti-Human Kappa-HRP (Southern Biotech Catalog #9230-05) was used for detection.
(§3) An IgG version and pentameric IgM-J chain version of anti-DR5 mAb #2 were tested for binding specificity by ELISA as described in Example 2. As shown in FIG. 8A (IgG) and FIG. 8B (IgM), the antibodies bound to human DR5 but not human DR4 or either of the decoy receptors DcR1 or DcR2.

[2] = target: T2, Soluble DR4 protein (R&D Systems Catalog #347-DR-100/CF) (human, UniProt O00220 24-239, limits assumed)
T2 construct: also called human DR4; TRAILR1
T2 sequence (looked up): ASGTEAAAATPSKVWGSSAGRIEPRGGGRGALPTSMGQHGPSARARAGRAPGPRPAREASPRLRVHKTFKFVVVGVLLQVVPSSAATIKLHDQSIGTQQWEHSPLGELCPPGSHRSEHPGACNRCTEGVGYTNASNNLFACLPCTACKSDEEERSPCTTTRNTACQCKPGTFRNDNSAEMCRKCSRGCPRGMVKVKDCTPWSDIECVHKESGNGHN
Protocol: as §1, §2, §3

[3] = target: T3, Soluble DcR2 protein (R&D Systems Catalog #633-TR-100) (UniProt Q9UBN6 56-211, limits assumed)
T3 construct: also called decoy receptor DcR2; TRAILR4
T3 sequence (looked up): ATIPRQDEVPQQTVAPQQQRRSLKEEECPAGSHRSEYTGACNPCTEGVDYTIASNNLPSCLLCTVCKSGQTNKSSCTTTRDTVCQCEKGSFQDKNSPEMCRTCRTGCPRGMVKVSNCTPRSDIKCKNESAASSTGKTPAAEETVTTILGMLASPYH
Protocol: as §1, §2, §3

Measured: binding result

B1: Anti-DR5 mAb #2, pentameric IgM-J chain version (antibody, V domains shown)
VH: QVQLQESGPGLVKPSQTLSLTCTVSGGSISSGDYFWSWIRQLPGKGLECIGHIHNSGTTYYNPSLKSRVTISVDTSKKQFSLRLSSVTAADTAVYYCARDRGGDYYYGMDVWGQGTTVTVSS
VL: EIVLTQSPGTLSLSPGERATLSCRASQGISRSYLAWYQQKPGQAPSLLIYGASSRATGIPDRFSGSGSGTDFTLTISRLEPEDFAVYYCQQFGSSPWTFGQGTKVEIK
modifications: Assembled as a pentamer of bivalent IgM binding units with one J chain (10 VH/VL pairs); the letters do not carry this.
notes: VH and VL were inserted into proprietary IgM vectors; also called DR5 MAb IgM #2; IgM Anti-DR5 mAb #2; not shown: IgM heavy-chain constant region, kappa light-chain constant region and J chain of the construct
no binding: all assays above
